We go through three molecules from publication PMC12354777 (Nature Communications, 2025).

The experiment has as its target T1, HR1C peptide of SARS-CoV-2 (residues 937-955), His6-tagged (SARS-CoV-2, UniProt P0DTC2).
T1 chain: SLSSTASALGKLQDVVNQN
The experiment in a line: BLI. (BLI is a label-free optical method that tracks binding on a fibre tip over time.)

B1: 3D1 mutant Y93A (light chain, CDRL3) (antibody, V domains shown)
VH: QVQLVQSGSELKKPGASVRISCKASGYSFTSLSMNWVRQAPGQGLEWMGWISTKSGDPTYAQAFTGRFVFSLDTSVNTAYLQINSLEAGDTAVYYCARGQPPVGWTFDYWGQGTLVTVSS
VL: QSALTQPPSASGSPGQSVTISCTGTSSDVGGYNYVSWYQQHPGKAPKLIIYEVSKRPSGVPDRFSGSKSGNTASLTVSGLQAEDEADYYCSSATSSSTLVFGGGTKLTVL
In the case of B1, the binding result was “no binding”.

B2: 3D1 mutant W105A (heavy chain, CDRH3) (antibody, V domains shown)
VH: QVQLVQSGSELKKPGASVRISCKASGYSFTSLSMNWVRQAPGQGLEWMGWISTKSGDPTYAQAFTGRFVFSLDTSVNTAYLQINSLEAGDTAVYYCARGQPPVGATFDYWGQGTLVTVSS
VL: QSALTQPPSASGSPGQSVTISCTGTSSDVGGYNYVSWYQQHPGKAPKLIIYEVSKRPSGVPDRFSGSKSGNTASLTVSGLQAEDEADYYCSSYTSSSTLVFGGGTKLTVL
Turning to B2, the binding result is given as “no binding”.

B3: 3D1 mutant N35A (heavy chain) (antibody, V domains shown)
VH: QVQLVQSGSELKKPGASVRISCKASGYSFTSLSMAWVRQAPGQGLEWMGWISTKSGDPTYAQAFTGRFVFSLDTSVNTAYLQINSLEAGDTAVYYCARGQPPVGWTFDYWGQGTLVTVSS
VL: QSALTQPPSASGSPGQSVTISCTGTSSDVGGYNYVSWYQQHPGKAPKLIIYEVSKRPSGVPDRFSGSKSGNTASLTVSGLQAEDEADYYCSSYTSSSTLVFGGGTKLTVL
Consider B3, for which the binding result is “no binding”.
